Experimental data published in the Immune Epitope Database (IEDB).

Legend:
HLA-A*02:01 [1] = test: IEDB peptide-MHC binding, purified MHC/competitive/radioactivity; filed as Kd, often an IC50 or EC50 that approximates it; ≥ and ≤ were set here for values at or beyond the usual limits of such assays; settings: source organism: Homo sapiens
HLA-A*02:01 [2] = test: IEDB peptide-MHC binding, purified MHC/competitive/radioactivity; ≥ and ≤ were set here for values at or beyond the usual limits of such assays; settings: source organism: Homo sapiens

Sequence | Kd (HLA-A*02:01 [1]) | IC50 (HLA-A*02:01 [2])
GLAANQTGA | 2380 nM | –
FLAMLVLMA | 2080 nM | –
SVIDPLIYA | 1190 nM | –
SLCFLGAIA | ≥ 10000 nM | –
GLFLSLGLV | – | 535 nM
ILLGIFFLC | 5560 nM | –
MLARACQHA | 1640 nM | –
ILLLEAGAL | 4760 nM | –
ALVARAAVL | 11100 nM | –
TILLGVFIF | 4540 nM | –
TLPRARRRV | ≥ 25000 nM | –
LVLMAVLYV | 1210 nM | –
VLETAVGLL | – | 238 nM
LLCLVVFFL | – | 676 nM
GLVSLVENA | – | 532 nM
YLILIMCNS | 6250 nM | –
TILLGIFFL | – | 455 nM
ELRRTLKEV | ≥ 50000 nM | –
SLNSTPTAI | – | 633 nM
YLVLINCNS | 2170 nM | –
ALIICNAII | – | 893 nM
SLVENALVV | – | 429 nM
QLGLAANQT | ≥ 50000 nM | –
DLLVSGSNV | ≥ 50000 nM | –
FLSLGLVSL | – | 206 nM
TILIGVFVV | 4540 nM | –
LLVSGSNVL | 1410 nM | –
AVMDPFIYA | – | 758 nM
NGMLIMCNA | 16700 nM | –
GLKGAVTLT | ≥ 50000 nM | –
